According to publication PMC6009577:

Target: G4-P351A fragment of DGCR8 (proline at 351 to alanine) (human) (UniProt Q8WYQ5)
Assay: SEC

- stoichiometry N: 2
Substance: G4-P351A fragment of DGCR8 (proline at 351 to alanine) (from UniProt Q8WYQ5 1-773) (domain or fragment)
